Test results taken from the supplement of paper PMC10126150.
± gives the standard deviation of the averaged measurements.
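Note: ATP exposure 15 min at 22 °C before imaging.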

What follows are sequences tested on ATP (assay: switch fluorescence ratio, 500 uM ATP over buffer (Cy3 cluster intensity, sum of 5 cycles each) (fold (ratio)); higher = stronger signal-on switching upon ATP binding; sequences stand for … in TCGTCGGCAGCGTCAGATGTGTATAAGAGACAGTTTTTTTTTTTTTTTTTTTTTTTTT…TC). Conditions: aptamer strand: ATP DNA aptamer (quencher-CACCTGGGGGAGTATTGCGGAGGAAGG + anchor), 100 nM annealed; ATP concentration: 500 uM.
In short: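 Between each of five buffer/ATP cycles, the flow-cell was stripped with NaOH and re-annealed. Each cycle imaged Cy3-labelled switching-strand clusters, annealed to 100 nM quencher-labelled ATP aptamer on a modified Illumina MiSeq flow-cell, first in selection buffer and then after 15 min with 500 uM ATP at 22 °C. The fluorescence ratio is summed target-cycle over summed buffer-cycle Cy3 intensity per cluster, averaged per switch-domain sequence, with clusters outside 100-1000 RFU excluded.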
CGTCTAACGC was tested, and the switch fluorescence ratio was 1.02 ± 0.029.
TTGGGATAGG gave a switch fluorescence ratio of 1.01 ± 0.029.
Work on TTACTATGAA yielded a switch fluorescence ratio of 1.039 ± 0.0071.
Work on TAATTTGTCG yielded a switch fluorescence ratio of 0.982 ± 0.023.
CCGCAGGGTA showed a switch fluorescence ratio of 1.259 ± 0.0092.
In the case of GGGGGTAGTG, the switch fluorescence ratio is reported as 0.9946 ± 0.0063.
Sequence ATTGACGAGG has a switch fluorescence ratio of 1.001 ± 0.0026.
With AAGGCTGTAA the switch fluorescence ratio was 0.97831 ± 0.0009.
Work on AATGTATTTT yielded a switch fluorescence ratio of 1.01 ± 0.029.
GGGGAGCGAT was tested, and the switch fluorescence ratio was 1.05 ± 0.019.
CAAATGTCGT was tested, and the switch fluorescence ratio was 1.008 ± 0.008.
Sequence TCGTTCGGCA has a switch fluorescence ratio of 1.06 ± 0.032.
Work on TCCATCAGTA yielded a switch fluorescence ratio of 0.985 ± 0.024.
Sequence TATTTGTACT has a switch fluorescence ratio of 1 ± 0.013.
In the case of ATTGTTTCCT, the switch fluorescence ratio is reported as 1.06 ± 0.039.
With TCGTTCTTTT the switch fluorescence ratio was 0.966 ± 0.019.
With AACTTGGCAT the switch fluorescence ratio was 1.02 ± 0.011.
Work on GGTTTTCCAG yielded a switch fluorescence ratio of 0.946 ± 0.063.
CGGGTTCTGG gave a switch fluorescence ratio of 0.989 ± 0.014.
TTTTAAGAAG was tested, and the switch fluorescence ratio was 1.02 ± 0.018.
ACCGCATAGG showed a switch fluorescence ratio of 1.0484 ± 4.5e-05.
In the case of ATGTCATGGG, the switch fluorescence ratio is reported as 0.998 ± 0.032.
TGTGGCTATG was tested, and the switch fluorescence ratio was 1.02 ± 0.014.
Work on TATGGGAGTT yielded a switch fluorescence ratio of 1 ± 0.01.
With AAAGCGTGTG the switch fluorescence ratio was 1.01 ± 0.043.
In the case of ATAGTGTGGT, the switch fluorescence ratio is reported as 0.986 ± 0.083.
For ATACTGTTGA, the switch fluorescence ratio was 0.973 ± 0.013.
CGAGTAGTCA was tested, and the switch fluorescence ratio was 0.994 ± 0.018.
Work on CGAAGATTTT yielded a switch fluorescence ratio of 1.05 ± 0.022.
With ATGCTTAGTT the switch fluorescence ratio was 1.03 ± 0.051.
Sequence ACGAAGTTTT has a switch fluorescence ratio of 1.02 ± 0.0028.
CTGAAGCTCA gave a switch fluorescence ratio of 1.91 ± 0.044.
With TCGAGCGAAC the switch fluorescence ratio was 2.1 ± 0.53.
GCCTTCAAGC was tested, and the switch fluorescence ratio was 1.04 ± 0.054.
ACTAGTGGTC gave a switch fluorescence ratio of 0.992 ± 0.042.
Sequence AGGGAGCCCG has a switch fluorescence ratio of 1.01 ± 0.036.
Sequence CGGGATGATT has a switch fluorescence ratio of 0.998 ± 0.044.
Sequence TTTAAAGA has a switch fluorescence ratio of 0.991 ± 0.01.
AGGTTCCTCT showed a switch fluorescence ratio of 1.04 ± 0.019.
With GCTCTATAAT the switch fluorescence ratio was 1.03 ± 0.0044.
ACTTCGAGCG showed a switch fluorescence ratio of 1.08 ± 0.02.
In the case of CCATATTGTG, the switch fluorescence ratio is reported as 1.02 ± 0.016.
AGTTCCGGGA gave a switch fluorescence ratio of 1.02 ± 0.067.
TCATAGCGCC gave a switch fluorescence ratio of 1.01 ± 0.045.
Work on TTTGAATGCT yielded a switch fluorescence ratio of 0.952 ± 0.046.
GGGAAGGAAG was tested, and the switch fluorescence ratio was 1.04 ± 0.04.
ATGGGTGTAC gave a switch fluorescence ratio of 1.01 ± 0.016.
In the case of TTTTTGGTTT, the switch fluorescence ratio is reported as 1.02 ± 0.083.
For TAAATAAATT, the switch fluorescence ratio was 1.01 ± 0.044.
Work on CAGCTGTGGT yielded a switch fluorescence ratio of 0.985 ± 0.036.
TGGGTTTGCG gave a switch fluorescence ratio of 0.982 ± 0.021.
CCATTGGGTA was tested, and the switch fluorescence ratio was 1.01 ± 0.036.
With GGGGGGGTTG the switch fluorescence ratio was 1.01 ± 0.083.
In the case of TGGGTATTTT, the switch fluorescence ratio is reported as 1.01 ± 0.026.
TTCTTAGATG showed a switch fluorescence ratio of 1.016 ± 0.0088.
Work on GAAGGTTATA yielded a switch fluorescence ratio of 1 ± 0.047.
AAGGTTAGGG showed a switch fluorescence ratio of 0.984 ± 0.029.
Sequence AGGGGAAGAC has a switch fluorescence ratio of 1.29 ± 0.41.
GGGATGGATT gave a switch fluorescence ratio of 0.969 ± 0.047.
Work on GGACAAGAGA yielded a switch fluorescence ratio of 0.996 ± 0.038.
GGATGCGGGA showed a switch fluorescence ratio of 0.98 ± 0.028.
For GAGTTTGAAT, the switch fluorescence ratio was 0.969 ± 0.021.
With TGTTGGGGAG the switch fluorescence ratio was 0.972 ± 0.025.
Sequence TAAAGGGGAG has a switch fluorescence ratio of 1.01 ± 0.019.
For TATGTGGAGG, the switch fluorescence ratio was 0.97262 ± 0.00028.
CTGGTACAGA was tested, and the switch fluorescence ratio was 0.97 ± 0.13.
With GGGTGAACAT the switch fluorescence ratio was 0.98659 ± 0.00029.
AGGGCAGAGG showed a switch fluorescence ratio of 0.98599 ± 0.00021.
For CTATGGGATG, the switch fluorescence ratio was 0.992 ± 0.039.
AGGATTCGGC gave a switch fluorescence ratio of 1.04 ± 0.059.
For AGGGAGGAGC, the switch fluorescence ratio was 0.923 ± 0.045.
CTTGGCCGCG gave a switch fluorescence ratio of 0.987 ± 0.011.
AATTAGACAG was tested, and the switch fluorescence ratio was 0.9912 ± 0.0047.
GATATGTTTT gave a switch fluorescence ratio of 1 ± 0.035.
Sequence GATATTATGA has a switch fluorescence ratio of 1.01 ± 0.01.
With GCTCCAATAA the switch fluorescence ratio was 2.49 ± 0.047.
